The numbers were not newly measured in PMC5683942, which cites them from elsewhere.

Data set [1] deals with Histone H4 K5ac (Homo sapiens) (UniProt P62805).
In data set [2] the target is Histone H4 K8ac (Homo sapiens) (UniProt P62805).
Data set [3] addresses Histone H4 K12ac (Homo sapiens) (UniProt P62805).
In data set [4] the target is Histone H3 K14ac (Homo sapiens) (UniProt P68431).
In data set [5] the target is Histone H2A K5ac (Homo sapiens) (UniProt P0C0S8).
Data set [6] has as its target Histone H4 K5buK8bu (Homo sapiens) (UniProt P62805).

What is called Kd is the concentration at which binding is half-saturated. With BRPF1 bromodomain (from UniProt P55201), the Kd in data set [1] was 1240 µM; in data set [2], 697 µM; in data set [3], 86.5 µM; in data set [4] it was 626 µM; in data set [5], 48.5 µM.

BRD9 bromodomain (from UniProt Q9H8M2): in data set [6], the Kd was 60 µM.
